Assay results: US20190240295A1

Tests used:
[1] = molecular target: Plasma-derived VWF (pdVWF, Diagnostica Stago) (UniProt P04275); assay: SPR (Biacore), pdVWF immobilized on CM5 chip; mean KD of lots K-N
[2] = molecular target: LRP1 (alpha2-macroglobulin receptor/CD91) receptor (BioMac) (UniProt Q07954); assay: SPR (Biacore), LRP1 immobilized on CM4 chip; mean KD of lots K-N
[3] = molecular target: Plasma-derived VWF (pdVWF, Diagnostica Stago) (UniProt P04275); assay: SPR (Biacore), pdVWF immobilized on CM5 chip; mean KD of lots G-I
[4] = molecular target: Plasma-derived VWF (pdVWF, Diagnostica Stago) (UniProt P04275); assay: SPR (Biacore), pdVWF immobilized on CM5 chip; mean KD of lots D-F
[5] = molecular target: LRP1 (alpha2-macroglobulin receptor/CD91) receptor (BioMac) (UniProt Q07954); assay: SPR (Biacore), LRP1 immobilized on CM4 chip; mean KD of lots A-C
[6] = molecular target: LRP1 (alpha2-macroglobulin receptor/CD91) receptor (BioMac) (UniProt Q07954); assay: SPR (Biacore), LRP1 immobilized on CM4 chip; mean KD of lots D-F
[7] = molecular target: Plasma-derived VWF (pdVWF, Diagnostica Stago) (UniProt P04275); assay: SPR (Biacore), pdVWF immobilized on CM5 chip; mean KD of lots A-C

Chain of UniProt Q07954 (Q07954 20-4544 limits assumed): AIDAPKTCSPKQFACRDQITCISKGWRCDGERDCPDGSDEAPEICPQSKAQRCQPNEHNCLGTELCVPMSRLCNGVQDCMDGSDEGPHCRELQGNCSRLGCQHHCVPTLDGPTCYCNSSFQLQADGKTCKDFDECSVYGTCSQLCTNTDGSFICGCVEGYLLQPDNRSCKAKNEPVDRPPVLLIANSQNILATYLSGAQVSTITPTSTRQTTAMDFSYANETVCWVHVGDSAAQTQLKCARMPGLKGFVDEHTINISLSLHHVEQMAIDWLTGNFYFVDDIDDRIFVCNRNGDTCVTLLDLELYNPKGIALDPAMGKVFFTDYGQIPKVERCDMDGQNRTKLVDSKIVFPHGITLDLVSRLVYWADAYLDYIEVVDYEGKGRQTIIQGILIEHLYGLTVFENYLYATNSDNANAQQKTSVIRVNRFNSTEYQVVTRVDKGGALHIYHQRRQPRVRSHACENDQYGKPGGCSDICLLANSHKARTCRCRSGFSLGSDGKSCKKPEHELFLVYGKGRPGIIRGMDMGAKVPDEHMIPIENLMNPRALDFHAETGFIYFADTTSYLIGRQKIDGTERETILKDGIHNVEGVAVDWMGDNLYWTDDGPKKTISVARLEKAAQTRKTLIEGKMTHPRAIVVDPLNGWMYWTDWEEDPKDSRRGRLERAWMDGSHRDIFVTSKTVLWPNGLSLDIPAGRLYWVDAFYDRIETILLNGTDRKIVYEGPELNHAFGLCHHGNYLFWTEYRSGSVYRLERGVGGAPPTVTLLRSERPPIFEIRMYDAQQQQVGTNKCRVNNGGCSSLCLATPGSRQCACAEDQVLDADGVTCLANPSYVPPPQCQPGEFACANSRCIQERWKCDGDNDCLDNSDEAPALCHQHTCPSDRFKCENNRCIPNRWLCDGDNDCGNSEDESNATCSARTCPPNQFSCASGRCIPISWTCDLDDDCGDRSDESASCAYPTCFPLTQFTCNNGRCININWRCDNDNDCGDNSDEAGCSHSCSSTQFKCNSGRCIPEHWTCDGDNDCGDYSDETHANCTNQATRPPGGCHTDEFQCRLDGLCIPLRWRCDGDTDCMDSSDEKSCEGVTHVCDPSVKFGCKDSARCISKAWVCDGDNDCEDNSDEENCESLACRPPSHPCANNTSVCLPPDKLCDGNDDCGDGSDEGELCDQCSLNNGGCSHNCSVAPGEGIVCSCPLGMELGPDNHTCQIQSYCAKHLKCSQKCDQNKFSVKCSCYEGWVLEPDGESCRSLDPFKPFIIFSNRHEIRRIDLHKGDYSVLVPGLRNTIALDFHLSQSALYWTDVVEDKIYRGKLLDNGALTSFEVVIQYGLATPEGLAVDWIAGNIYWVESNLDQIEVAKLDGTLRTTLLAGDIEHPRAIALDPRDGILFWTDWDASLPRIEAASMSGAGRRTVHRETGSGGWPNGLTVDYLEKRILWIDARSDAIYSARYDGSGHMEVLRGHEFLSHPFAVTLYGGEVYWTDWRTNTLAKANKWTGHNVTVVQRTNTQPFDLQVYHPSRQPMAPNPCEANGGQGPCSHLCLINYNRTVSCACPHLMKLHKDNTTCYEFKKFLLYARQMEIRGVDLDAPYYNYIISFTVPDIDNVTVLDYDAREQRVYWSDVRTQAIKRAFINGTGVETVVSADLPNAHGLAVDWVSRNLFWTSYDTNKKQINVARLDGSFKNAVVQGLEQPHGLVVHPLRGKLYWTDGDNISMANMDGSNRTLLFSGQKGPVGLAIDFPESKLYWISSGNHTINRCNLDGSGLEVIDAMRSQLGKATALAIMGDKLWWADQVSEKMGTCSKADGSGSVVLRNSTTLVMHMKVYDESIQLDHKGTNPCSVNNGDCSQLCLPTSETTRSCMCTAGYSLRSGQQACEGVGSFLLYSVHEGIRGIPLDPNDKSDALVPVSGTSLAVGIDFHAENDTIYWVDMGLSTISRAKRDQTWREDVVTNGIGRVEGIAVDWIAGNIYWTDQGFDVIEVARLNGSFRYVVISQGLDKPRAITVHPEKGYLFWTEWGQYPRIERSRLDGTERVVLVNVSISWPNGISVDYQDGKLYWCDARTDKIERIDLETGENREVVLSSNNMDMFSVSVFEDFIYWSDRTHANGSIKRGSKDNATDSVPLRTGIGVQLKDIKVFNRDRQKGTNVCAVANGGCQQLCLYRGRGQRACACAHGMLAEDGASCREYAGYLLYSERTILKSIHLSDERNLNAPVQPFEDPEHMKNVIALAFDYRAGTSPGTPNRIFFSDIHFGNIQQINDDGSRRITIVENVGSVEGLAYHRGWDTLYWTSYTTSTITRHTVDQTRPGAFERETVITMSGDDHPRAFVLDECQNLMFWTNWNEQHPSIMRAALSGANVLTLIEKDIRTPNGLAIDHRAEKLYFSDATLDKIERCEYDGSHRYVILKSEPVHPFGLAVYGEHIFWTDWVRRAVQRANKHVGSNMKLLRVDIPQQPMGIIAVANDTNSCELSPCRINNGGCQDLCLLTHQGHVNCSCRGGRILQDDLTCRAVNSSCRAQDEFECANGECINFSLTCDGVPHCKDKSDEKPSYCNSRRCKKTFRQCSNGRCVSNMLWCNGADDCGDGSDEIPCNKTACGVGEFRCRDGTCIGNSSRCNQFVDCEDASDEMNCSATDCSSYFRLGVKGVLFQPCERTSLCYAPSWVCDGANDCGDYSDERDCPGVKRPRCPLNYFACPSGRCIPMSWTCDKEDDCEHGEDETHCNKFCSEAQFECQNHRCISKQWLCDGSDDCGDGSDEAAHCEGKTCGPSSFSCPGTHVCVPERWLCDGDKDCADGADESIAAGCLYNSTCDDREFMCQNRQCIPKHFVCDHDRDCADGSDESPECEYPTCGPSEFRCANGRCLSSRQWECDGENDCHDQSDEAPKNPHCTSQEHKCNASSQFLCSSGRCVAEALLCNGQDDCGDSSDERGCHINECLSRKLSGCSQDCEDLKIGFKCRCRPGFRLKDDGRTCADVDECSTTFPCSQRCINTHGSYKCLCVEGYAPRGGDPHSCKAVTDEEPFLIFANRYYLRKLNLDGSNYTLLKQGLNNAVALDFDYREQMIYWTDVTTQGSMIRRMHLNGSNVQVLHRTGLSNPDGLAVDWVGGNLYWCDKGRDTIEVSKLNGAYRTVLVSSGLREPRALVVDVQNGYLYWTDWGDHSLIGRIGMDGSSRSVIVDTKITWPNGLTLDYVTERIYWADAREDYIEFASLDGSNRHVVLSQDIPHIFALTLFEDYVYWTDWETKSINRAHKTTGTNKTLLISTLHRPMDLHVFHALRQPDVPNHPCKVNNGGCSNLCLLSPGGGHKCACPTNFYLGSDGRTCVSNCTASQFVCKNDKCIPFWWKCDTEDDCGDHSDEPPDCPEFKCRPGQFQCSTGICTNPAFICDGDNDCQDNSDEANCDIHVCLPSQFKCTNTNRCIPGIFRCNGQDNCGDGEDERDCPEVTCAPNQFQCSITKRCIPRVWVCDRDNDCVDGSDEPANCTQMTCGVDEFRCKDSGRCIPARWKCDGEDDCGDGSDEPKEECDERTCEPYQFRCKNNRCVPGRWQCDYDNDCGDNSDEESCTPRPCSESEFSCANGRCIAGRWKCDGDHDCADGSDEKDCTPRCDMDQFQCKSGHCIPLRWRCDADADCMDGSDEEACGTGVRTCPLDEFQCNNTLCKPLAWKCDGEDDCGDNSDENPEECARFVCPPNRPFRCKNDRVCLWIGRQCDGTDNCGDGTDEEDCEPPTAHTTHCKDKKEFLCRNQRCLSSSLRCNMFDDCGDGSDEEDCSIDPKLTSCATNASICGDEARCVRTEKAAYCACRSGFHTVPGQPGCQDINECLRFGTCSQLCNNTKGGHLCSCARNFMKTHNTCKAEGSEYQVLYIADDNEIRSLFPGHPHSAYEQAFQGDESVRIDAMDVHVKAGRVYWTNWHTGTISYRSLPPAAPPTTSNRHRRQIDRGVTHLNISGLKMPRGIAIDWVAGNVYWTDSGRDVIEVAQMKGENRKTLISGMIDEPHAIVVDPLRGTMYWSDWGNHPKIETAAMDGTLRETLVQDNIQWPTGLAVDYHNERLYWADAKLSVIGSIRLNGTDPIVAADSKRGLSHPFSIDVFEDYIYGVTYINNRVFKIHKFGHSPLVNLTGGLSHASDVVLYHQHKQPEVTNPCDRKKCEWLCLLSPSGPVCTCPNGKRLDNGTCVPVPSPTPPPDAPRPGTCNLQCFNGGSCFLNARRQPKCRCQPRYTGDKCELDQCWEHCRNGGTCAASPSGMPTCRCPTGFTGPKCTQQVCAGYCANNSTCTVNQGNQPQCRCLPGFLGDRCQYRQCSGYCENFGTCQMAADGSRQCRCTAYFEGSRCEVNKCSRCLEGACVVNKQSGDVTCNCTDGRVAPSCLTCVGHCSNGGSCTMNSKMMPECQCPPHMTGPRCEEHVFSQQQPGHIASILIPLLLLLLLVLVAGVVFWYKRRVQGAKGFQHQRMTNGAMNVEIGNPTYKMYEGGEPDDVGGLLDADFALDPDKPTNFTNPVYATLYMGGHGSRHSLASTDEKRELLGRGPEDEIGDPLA

Kd [1] [pM] | Kd [2] [pM] | Kd [3] [pM] | Kd [4] [pM] | Kd [5] [pM] | Kd [6] [pM] | Kd [7] [pM] | Substance
320 | 22300 | – | – | – | – | – | rebuffered rFVIII (unmodified recombinant Factor VIII) (from UniProt P00451 20-2351)
– | – | 310 | 280 | 19000 | 32000 | 280 | PSA-rFVIII (polysialylated recombinant Factor VIII) (from UniProt P00451 20-2351)
